From PMC10166511, “Fast cross-linking by DOPA2 promotes the capturing of a stereospecific protein complex over nonspecific encounter complexes” (Biophysics Reports, 2022) come the findings set out here.

Bounds are passed on as bounds.

This assay deals with T1, EIIA^Glc (UniProt P69783 2-169).
T1 construct: EIIA^Glc, functional subunit of Enzyme II of the bacterial glucose phosphotransferase system; Species is stated only for enzyme I (E. coli); source: purified as previously described (Garrett et al. 1999; Xing et al. 2014)
T1 sequence (P69783 2-169): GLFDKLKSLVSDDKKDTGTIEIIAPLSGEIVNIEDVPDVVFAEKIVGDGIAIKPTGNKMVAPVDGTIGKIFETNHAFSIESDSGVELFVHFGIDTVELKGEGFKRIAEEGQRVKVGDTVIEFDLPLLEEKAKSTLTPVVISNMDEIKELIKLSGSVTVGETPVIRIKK
Put plainly: SPR + ELISA; no accurate KD obtained; format and conditions not told. The following applies: both partners purified. For orientation: ELISA stands for enzyme-linked immunosorbent assay.

B1: EIIB^Glc (domain or fragment)
chain: EDATEDAKATGTSEMAPALVAAFGGKENITNLDACITRLRVSVADVSKVDQAGLKKLGAAGVVVAGSGVQAIFGTKSDNLKTEMDEYIRN
notes: EIIB^Glc, functional subunit of Enzyme II of the bacterial glucose phosphotransferase system; Species is stated only for enzyme I (E. coli); source: purified as previously described (Garrett et al. 1999; Xing et al. 2014)
What is called Kd is the concentration at which binding is half-saturated. For the molecule B1, the Kd is over 10 µM.
